The text below walks through data of the RNAGym collection of RNA variant scans (doi:10.1093/nar/gkz1192).

First the molecules themselves.
B1: CPEB3 Ribozyme (parent)
chain: UAACAGGGGGCCACAGCAGAAGCGUUCACGUCGCAGCCCCUGUCAGAUUCUGGUGAAUCUGCGAAUUCUGCUGUAUAUCUC

Variants of B1 are the subject of this data set. Put plainly: self-cleavage, relative activity (ratio to wild type); higher = more cleavage; in vitro, sequencing. The method, boiled down: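 Libraries of CPEB3 self-cleaving ribozyme mutants came from rounds of error-prone PCR and carried barcodes, which DNA sequencing matched to variants. In vitro transcription used T7 RNA polymerase at 37°C for 5 hours, with a further 15 min in DNase I before EDTA stopped the reaction; the ribozymes cleaved during both steps. The RNA was reverse transcribed with template switching and sequenced on Illumina. Relative activity is the cleaved/total read fraction of a variant divided by that of the unmutated ribozyme, averaged over three batches with at least 5 reads.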
As to A13C A18U, the self-cleavage amounted to 0.25.
The same measure for A13C A18G: 0.67; for A13C A28U: 0.76.
The figure for A13C A28G is 0.62.
The same measure for A13C C17U: 0.53; for C12U U48G: 0.94.
Regarding C12U U48C, the self-cleavage amounted to 1.18.
The figure for A13C G46C is 0.18.
Take C12U A65G: the self-cleavage was 1.07.
C12U A65U: the self-cleavage was 0.42.
The figure for C12U U78C is 1.23.
The same measure for C12U U78A: 1.28; for A13C U41C: 1.08.
The same measure for A13C U48C: 0.68; for A13C C79U: 1.11.
With C12U G63C, the self-cleavage is 1.26.
In the case of C12U G63A, the self-cleavage worked out at 1.39.
On to A13C A20G, for which the self-cleavage was 0.72.
Regarding C12U G70A, the self-cleavage is 1.06.
The same measure for C12U U54C: 1.27; for C12U U54G: 1.01.
The same measure for C12U U74G: 1.25; for C12U U74A: 1.3.
As for C12U C39U, the self-cleavage is 1.26.
Consider A13C A64U, for which the self-cleavage was determined as 0.4.
The figure for A13C A64G is 0.93; for C12U U80A it is 1.26.
For C12U U80C, the self-cleavage was found to be 1.23.
As to A13C A45U, the self-cleavage is 0.44.
For the variant A13C A15G, the self-cleavage turned out to be 1.07.
As for A13C A15U, the self-cleavage came to 1.
The figure for A13C U78C is 1.02.
The same measure for A13C U78A: 1; for A13C U76A: 1.18; for A13C U76C: 0.75.
The figure for C12U G53A is 1.18; for A13C G30A it is 0.25.
In the case of A13C G30U, the self-cleavage amounted to 0.12.
The figure for C12U G24C is 0.16; for A13C A47G it is 1.05.
As to A13C A47C, the self-cleavage was 0.34.
The same measure for C12U A56G: 1.13.
As for C12U A35C, the self-cleavage was found to be 0.85.
With C12U A35U, the self-cleavage is 1.06.
As to C12U A35G, the self-cleavage was 1.15.
The figure for C12U U49C is 1.01.
Take A13C U69A: the self-cleavage came out at 0.31.
The figure for A13C U69C is 0.52.
The same measure for A13C C50A: 0.87; for C12U U58A: 0.9.
The same measure for C12U U58C: 1.03; for A13C U51G: 0.88; for A13C U51C: 1.11.
In the case of A13C U51A, the self-cleavage is 1.01.
As for A13C C38A, the self-cleavage is 0.33.
Take A13C C38U: the self-cleavage stood at 0.93.
Turning to A13G A15C, the self-cleavage came out at 0.81.
Take A13C U66C: the self-cleavage is 0.33.
A13C A77G: the self-cleavage is 1.12.
The same measure for C12U A47U: 0.83; for C12U A47C: 0.76.
As for C12U A47G, the self-cleavage stood at 1.17.
The figure for A13C G36A is 0.26; for A13C G36C it is 0.35; for A13C C29G it is 0.3.
As to A13C A75U, the self-cleavage was found to be 0.99.
As for A13C A75G, the self-cleavage is 1.12.
Regarding C12U C17U, the self-cleavage worked out at 1.13.
The figure for C12U C81U is 1.22; for A13C C40A it is 0.26; for C12U U31G it is 0.91.
With C12U U31A, the self-cleavage is 1.11.
On to C12U U31C, for which the self-cleavage amounted to 1.28.
The same measure for C12U C71U: 0.58; for A13C G70A: 0.44.
The figure for C12U C14U is 1.25.
For A13C C14G, the self-cleavage was determined as 0.56.
For the variant C12U U69G, the self-cleavage is 1.18.
The same measure for C12U U69C: 0.96; for C12U U69A: 0.95.
Consider C12U U67A, for which the self-cleavage came out at 0.86.
The figure for C12U U67G is 0.95; for C12U U67C it is 0.3; for C12U U25G it is 0.7.
The figure for C12U U25C is 0.38; for C12U A64U it is 0.83.
Turning to C12U A64G, the self-cleavage is 1.41.
Take A13C A21U: the self-cleavage amounted to 0.49.
The figure for A13C A65G is 0.32; for C12U A75U it is 1.28; for C12U A75G it is 1.3.
Consider C12U C27A, for which the self-cleavage was determined as 0.46.
The same measure for A13C U67C: 0.19; for C12U A77G: 1.19; for C12U A77C: 1.03.
In the case of A13C U74C, the self-cleavage came to 1.18.
The same measure for C12U C23U: 0.52; for A13C C71U: 0.33.
As to C12U U76C, the self-cleavage was found to be 1.31.
The same measure for A13C U25A: 0.34.
The same measure for A13C U25C: 0.31; for C12U G36C: 0.17; for C12U U26C: 0.84.
As to C12U U26A, the self-cleavage came to 1.19.
The same measure for C12U C44A: 0.94.
The figure for C12U C29U is 0.96; for C12U C40U it is 1.12; for C12U A21U it is 1.
The same measure for C12U A21G: 0.86; for A13C A57G: 1.04; for A13C A57U: 0.28.
On to A13C C32A, for which the self-cleavage stood at 0.29.
The figure for C12U U72A is 1.1; for C12U U72C it is 1.24.
For C12U G46A, the self-cleavage came to 0.68.
As to A13G, the self-cleavage came out at 0.94.
The same measure for A13C: 0.96; for C12U U60A: 1.04; for C12U U60G: 0.46.
The same measure for C12U U60C: 0.95.
The same measure for A13C A35G: 1.22.
Regarding A13C A35U, the self-cleavage stood at 0.42.
Consider C12U A28C, for which the self-cleavage amounted to 0.94.
The same measure for C12U A28G: 0.89.
Consider C12U A28U, for which the self-cleavage was 1.12.
The figure for C12U U66C is 0.71; for C12U G16U it is 0.75.
On to C12U G16C, for which the self-cleavage is 0.79.
With A13C U54G, the self-cleavage came to 0.71.
Take A13C U54C: the self-cleavage was found to be 1.09.
Consider C12U U41G, for which the self-cleavage came to 0.28.
Take C12U U41A: the self-cleavage came to 0.24.
The same measure for C12U U41C: 1.31; for C12U A57G: 1.26; for A13C U80C: 1.14.
The figure for A13C U80A is 0.92; for A13C U26A it is 0.61.
The same measure for A13C U26C: 0.51; for A13C A56U: 0.48.
Regarding A13C A56G, the self-cleavage was 0.65.
The same measure for C12U A20U: 0.38; for C12U A20G: 1.19; for A13C G22A: 0.19.
The same measure for C12U C34A: 0.68.
The same measure for A13C U49C: 0.42.
In the case of A13C U58C, the self-cleavage came to 0.45.
The figure for A13C U31A is 0.38; for A13C U31C it is 0.66; for A13C U72C it is 0.83.
The same measure for A13C U72A: 0.24.
Consider A13C G63U, for which the self-cleavage was found to be 0.97.
As for A13C G73C, the self-cleavage came out at 0.48.
A13C C68U: the self-cleavage was determined as 1.07.
As to A13C C44U, the self-cleavage came out at 0.59.
The same measure for A13C C44A: 0.42; for C12U U43A: 1.24.
As to C12U U43C, the self-cleavage was determined as 1.11.
The same measure for C12U U51A: 1.26; for C12U U51C: 1.25.
The same measure for A13C U43C: 0.62; for A13C U60G: 0.57.
The same measure for A13C U60A: 0.52.
As to A13C U60C, the self-cleavage was determined as 0.51.
C12U A45G: the self-cleavage was determined as 1.25.
The figure for C12U A45U is 0.83.
As for C12U A45C, the self-cleavage was found to be 0.64.
Turning to C12U C79A, the self-cleavage amounted to 1.19.
